Literature values, collected in PMC5493423.

System: CD31 (protein used for the reported Kd)
Details: biotin; PBMCs at 1e7 cells/ml, 100 ul, aptamer 30 min at 4 C, then flow cytometry staining buffer; column in APTSCI binding buffer (composition not given)

For “CD31 aptamer, biotinylated (APTSCI CD31-2196BCI)”, the Kd is listed as 1.14 nM.
